Reference: US20230242624A1 (NEURIMMUNE, published 2023)
Where “and” joins values, the source holds several entries; their conditions need not be identical. Identical values can stand only once. Like-named read-outs stand apart in the source and are kept apart here.

Legend:
[1] = biological target: T1, SARS-CoV-2-S1 (RBD)-His protein (Trenzyme) (SARS-CoV-2, UniProt P0DTC2 319-541); experiment: direct ELISA on coated RBD-His
[2] = biological target: T1, SARS-CoV-2-S1 (RBD)-His protein …; experiment: direct ELISA on coated RBD-His; remark: listed apart in the source
[3] = biological target: T1, SARS-CoV-2-S1 (RBD)-His protein …; experiment: direct ELISA on coated RBD-His (FIG. 1C); IgG1
[4] = biological target: T1, SARS-CoV-2-S1 (RBD)-His protein …
[5] = biological target: SARS-CoV-2 Spike Protein (S1+S2 ECD, His-Tag) (Sino 40589-V08B1) (SARS-CoV-2, UniProt P0DTC2 14-1213)
[6] = biological target: T1, SARS-CoV-2-S1 (RBD)-His protein …; remark: listed apart in the source
[7] = biological target: SARS-CoV-2 Spike (S) protein on vesicular stomatitis virus (VSV) pseudoviruses (SARS-CoV-2, UniProt P0DTC2 14-1273); experiment: cell-based or functional assay
[8] = biological target: T1, SARS-CoV-2-S1 (RBD)-His protein …; experiment: competition ELISA, RBD binding to coated ACE2
[9] = biological target: T1, SARS-CoV-2-S1 (RBD)-His protein …; experiment: iQue flow cytometry, antigen-coated beads
[10] = biological target: T2, MERS-CoV Spike protein fragment (RBD, aa 367-606, His tag) (MERS-CoV, UniProt K9N5Q8 367-606); experiment: iQue flow cytometry, antigen-coated beads
T2 sequence: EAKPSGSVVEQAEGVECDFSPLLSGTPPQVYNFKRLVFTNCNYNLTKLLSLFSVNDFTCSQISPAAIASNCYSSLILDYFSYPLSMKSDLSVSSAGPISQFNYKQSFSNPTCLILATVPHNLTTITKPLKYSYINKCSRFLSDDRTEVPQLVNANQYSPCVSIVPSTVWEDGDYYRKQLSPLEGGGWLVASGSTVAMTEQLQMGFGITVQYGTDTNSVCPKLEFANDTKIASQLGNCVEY

[11] = biological target: recombinant SARS-CoV Spike protein (RBD, His tag) (SARS-CoV, UniProt P59594 306-527); experiment: iQue flow cytometry, antigen-coated beads
[12] = biological target: T1, SARS-CoV-2-S1 (RBD)-His protein …; experiment: competition ELISA, RBD binding to coated ACE2; IgG1
[13] = biological target: T1, SARS-CoV-2-S1 (RBD)-His protein …; remark: listed apart in the source

B1: NI-607.649_B11 (antibody, V domains shown)
VH: QVQLVQSGAEVKKPGSSVKVSCKASGGTFSNYAISWVRQAPGQGLEWMGGIIPIFGTANYAQKFQGRVTITADESTSTAYMELSSLRSEDTAVYYCAGDRWYYDSSGYPTPDEYFQHWGQGTQVTVSS
VL: QSVLTQPPSVSGAPGQRVTISCTGSSSNIGAGYDVHWYQQLPGTAPKLLIYGNSNRPSGVPDRFSGSKSGTSASLAITGLQAEDEADYYCQSYDSSLSGVVFGGGTKLTVL
EC50 [1]: 0.027 nM | EC50 [2]: ~0.021 nM | EC50 [3]: ~0.013 nM | EC50 [4]: 0.036 nM | EC50 (read off the curve) [5]: ~0.5 nM | EC50 (read off the curve) [6]: ~4 nM | IC50, pseudovirus entry assay (luciferase, HEK 293T-ACE2 cells) [7]: 232 ng/mL and 1.53 nM | IC50 [8]: 0.08 nM | EC50 [9]: 1.4 nM | EC50 [10]: 1000 nM | EC50 [11]: 1.7 nM | IC50 [12]: ~0.052 µg/mL | IC50 (read off the curve) [13]: ~0.04 µg/mL
